Laboratory results: article PMC4532856 (Nature Communications, 2015)
Each block holds one molecule with its values, some of them ahead of it.

Tests used:
[1] = target: T1, full-length glucagon receptor purified from Sf9 membranes (Homo sapiens, UniProt P47871); assay: negative-stain EM (random conical tilt 3D maps); purified GCGR in lauryl maltose neopentyl glycol mixed with mAb23 Fab, complex isolated by size exclusion chromatography, stained with 2% uranyl formate; conditions: both partners purified
T1 construct: glucagon receptor (GCGR), full-length construct; the small molecule NNC0640 was present throughout; also called full-length GCGR; GCGR; source: Sf9 membranes, solubilised in DDM/CHS, purified (talon resin), exchanged into lauryl maltose neopentyl glycol
T1 sequence (P47871 26-477): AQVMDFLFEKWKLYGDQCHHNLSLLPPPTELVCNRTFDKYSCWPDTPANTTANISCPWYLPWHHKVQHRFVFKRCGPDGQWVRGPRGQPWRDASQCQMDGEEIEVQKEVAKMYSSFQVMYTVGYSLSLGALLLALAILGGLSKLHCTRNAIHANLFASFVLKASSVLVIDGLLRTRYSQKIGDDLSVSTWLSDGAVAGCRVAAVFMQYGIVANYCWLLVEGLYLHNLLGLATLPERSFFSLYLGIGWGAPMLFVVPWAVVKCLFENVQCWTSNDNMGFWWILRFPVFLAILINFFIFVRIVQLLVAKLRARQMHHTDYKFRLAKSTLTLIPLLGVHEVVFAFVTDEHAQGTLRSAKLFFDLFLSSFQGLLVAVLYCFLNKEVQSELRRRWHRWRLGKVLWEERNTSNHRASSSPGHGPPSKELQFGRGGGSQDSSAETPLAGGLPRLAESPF

[2] = target: T2, full-length glucagon receptor (GCGR), purified from Sf9 membranes for EM (Homo sapiens, UniProt P47871); assay: negative-stain electron microscopy map (random conical tilt); mAb23 Fab mixed with detergent-purified GCGR (lauryl maltose neopentyl glycol, NNC0640), complex isolated by size exclusion chromatography; 2% uranyl formate stain; about 0.01 uM protein; conditions: both partners purified
T2 construct: glucagon receptor (GCGR), human, called the full-length construct; also called full-length GCGR; full-length construct
T2 sequence (P47871 26-477): as above

GCGR = conditions: cited from earlier work

binding result [1]: binds
B1: antigen-binding fragment (Fab) of the monoclonal antibody mAb23 (Fab, V domains shown)
VH: EVQLVESGGGLVQPGGSLRLSCAASGFNIYYNYIHWVRQAPGKGLEWVAEFSPYSGSTYYADSVKGRFTISADTSKNTAYLQMNSLRAEDTAVYYCARSAAIVDWYDYFKGFDYWGQGTLVTVSS
VL: DIQMTQSPSSLSASVGDRVTITCRASQSVSSAVAWYQQKPGKAPKLLIYSASSLYSGVPSRFSGSRSGTDFTLTISSLQPEDFATYYCQQYGSYLYTFGQGTKVEIK
notes: The alignment numbers light chain 1-215 and heavy chain 216-443 in one run; also called mAb23 Fab; source: kindly provided by Genentech

binding result [2]: binds
B2: antigen-binding fragment (Fab) of the monoclonal antibody mAb23 (Fab, V domains shown)
VH: B1 VH
VL: B1 VL
notes: Related to mAb1, whose Fab is in PDB 4ERS (cited); also called mAb23 Fab; source: kindly provided by Genentech

B3: mAb23: monoclonal antibody that interacts with the ECD of GCGR; Fab kindly provided by Genentech (antibody, V domains shown)
VH: B1 VH
VL: B1 VL
effect on glucagon binding to the receptor (GCGR): preventing glucagon from binding to the receptor
